The source of these data is publication PMC9529352.

This data set has as its target N protein WT (SARS-CoV-2, UniProt P0DTC9 1-419). The data set is described as follows: mass photometry. As to conditions: protein: recombinant; tags: 6xHis-SUMO tag cleaved by Ulp1; chain copies: 12; hairpin.

B1: SL8 RNA (structured_RNA)
RNA: GAUGGCACUUGUGGCUUAGUAGAAGUUGAAAAAGGCGUUUUGCCUCAACUUGAACAGCCCUAUGUGUUCAUC
In the case of B1, the binding result is given as “binds”.
